Measurements: patent publication US20170044609
Read-outs that look alike come from different tables or passages of the source.

What was measured:
[1] = target: SHARP (SPEN) (Mus musculus) (UniProt Q62504); settings: UV crosslinked RIP-qPCR
[2] = test system: hnRNPM (Mus musculus); settings: RAP-MS, UV crosslinked, denaturing
[3] = test system: SAF-A (hnRNPU) (Mus musculus); settings: RAP-MS, UV crosslinked, denaturing
[4] = test system: ΔRS-LBR deletion of amino acids 71-90 (Homo sapiens); settings: FLAG IP RT-qPCR, UV crosslinked
[5] = test system: hnRNPC; settings: UV crosslinked RIP; RAP-MS
[6] = test system: CELF1 (Mus musculus); settings: UV crosslinked RIP; RAP-MS
[7] = test system: RBM15 (Mus musculus); settings: UV crosslinked RIP; RAP-MS
[8] = test system: RALY; settings: UV crosslinked RIP; RAP-MS
[9] = test system: MYEF2 (Mus musculus); settings: UV crosslinked RIP; RAP-MS
[10] = test system: PTBP1 (Mus musculus); settings: UV crosslinked RIP; CLIP site 10859-11344

UniProt Q62504, sequence (Q62504 whole entry): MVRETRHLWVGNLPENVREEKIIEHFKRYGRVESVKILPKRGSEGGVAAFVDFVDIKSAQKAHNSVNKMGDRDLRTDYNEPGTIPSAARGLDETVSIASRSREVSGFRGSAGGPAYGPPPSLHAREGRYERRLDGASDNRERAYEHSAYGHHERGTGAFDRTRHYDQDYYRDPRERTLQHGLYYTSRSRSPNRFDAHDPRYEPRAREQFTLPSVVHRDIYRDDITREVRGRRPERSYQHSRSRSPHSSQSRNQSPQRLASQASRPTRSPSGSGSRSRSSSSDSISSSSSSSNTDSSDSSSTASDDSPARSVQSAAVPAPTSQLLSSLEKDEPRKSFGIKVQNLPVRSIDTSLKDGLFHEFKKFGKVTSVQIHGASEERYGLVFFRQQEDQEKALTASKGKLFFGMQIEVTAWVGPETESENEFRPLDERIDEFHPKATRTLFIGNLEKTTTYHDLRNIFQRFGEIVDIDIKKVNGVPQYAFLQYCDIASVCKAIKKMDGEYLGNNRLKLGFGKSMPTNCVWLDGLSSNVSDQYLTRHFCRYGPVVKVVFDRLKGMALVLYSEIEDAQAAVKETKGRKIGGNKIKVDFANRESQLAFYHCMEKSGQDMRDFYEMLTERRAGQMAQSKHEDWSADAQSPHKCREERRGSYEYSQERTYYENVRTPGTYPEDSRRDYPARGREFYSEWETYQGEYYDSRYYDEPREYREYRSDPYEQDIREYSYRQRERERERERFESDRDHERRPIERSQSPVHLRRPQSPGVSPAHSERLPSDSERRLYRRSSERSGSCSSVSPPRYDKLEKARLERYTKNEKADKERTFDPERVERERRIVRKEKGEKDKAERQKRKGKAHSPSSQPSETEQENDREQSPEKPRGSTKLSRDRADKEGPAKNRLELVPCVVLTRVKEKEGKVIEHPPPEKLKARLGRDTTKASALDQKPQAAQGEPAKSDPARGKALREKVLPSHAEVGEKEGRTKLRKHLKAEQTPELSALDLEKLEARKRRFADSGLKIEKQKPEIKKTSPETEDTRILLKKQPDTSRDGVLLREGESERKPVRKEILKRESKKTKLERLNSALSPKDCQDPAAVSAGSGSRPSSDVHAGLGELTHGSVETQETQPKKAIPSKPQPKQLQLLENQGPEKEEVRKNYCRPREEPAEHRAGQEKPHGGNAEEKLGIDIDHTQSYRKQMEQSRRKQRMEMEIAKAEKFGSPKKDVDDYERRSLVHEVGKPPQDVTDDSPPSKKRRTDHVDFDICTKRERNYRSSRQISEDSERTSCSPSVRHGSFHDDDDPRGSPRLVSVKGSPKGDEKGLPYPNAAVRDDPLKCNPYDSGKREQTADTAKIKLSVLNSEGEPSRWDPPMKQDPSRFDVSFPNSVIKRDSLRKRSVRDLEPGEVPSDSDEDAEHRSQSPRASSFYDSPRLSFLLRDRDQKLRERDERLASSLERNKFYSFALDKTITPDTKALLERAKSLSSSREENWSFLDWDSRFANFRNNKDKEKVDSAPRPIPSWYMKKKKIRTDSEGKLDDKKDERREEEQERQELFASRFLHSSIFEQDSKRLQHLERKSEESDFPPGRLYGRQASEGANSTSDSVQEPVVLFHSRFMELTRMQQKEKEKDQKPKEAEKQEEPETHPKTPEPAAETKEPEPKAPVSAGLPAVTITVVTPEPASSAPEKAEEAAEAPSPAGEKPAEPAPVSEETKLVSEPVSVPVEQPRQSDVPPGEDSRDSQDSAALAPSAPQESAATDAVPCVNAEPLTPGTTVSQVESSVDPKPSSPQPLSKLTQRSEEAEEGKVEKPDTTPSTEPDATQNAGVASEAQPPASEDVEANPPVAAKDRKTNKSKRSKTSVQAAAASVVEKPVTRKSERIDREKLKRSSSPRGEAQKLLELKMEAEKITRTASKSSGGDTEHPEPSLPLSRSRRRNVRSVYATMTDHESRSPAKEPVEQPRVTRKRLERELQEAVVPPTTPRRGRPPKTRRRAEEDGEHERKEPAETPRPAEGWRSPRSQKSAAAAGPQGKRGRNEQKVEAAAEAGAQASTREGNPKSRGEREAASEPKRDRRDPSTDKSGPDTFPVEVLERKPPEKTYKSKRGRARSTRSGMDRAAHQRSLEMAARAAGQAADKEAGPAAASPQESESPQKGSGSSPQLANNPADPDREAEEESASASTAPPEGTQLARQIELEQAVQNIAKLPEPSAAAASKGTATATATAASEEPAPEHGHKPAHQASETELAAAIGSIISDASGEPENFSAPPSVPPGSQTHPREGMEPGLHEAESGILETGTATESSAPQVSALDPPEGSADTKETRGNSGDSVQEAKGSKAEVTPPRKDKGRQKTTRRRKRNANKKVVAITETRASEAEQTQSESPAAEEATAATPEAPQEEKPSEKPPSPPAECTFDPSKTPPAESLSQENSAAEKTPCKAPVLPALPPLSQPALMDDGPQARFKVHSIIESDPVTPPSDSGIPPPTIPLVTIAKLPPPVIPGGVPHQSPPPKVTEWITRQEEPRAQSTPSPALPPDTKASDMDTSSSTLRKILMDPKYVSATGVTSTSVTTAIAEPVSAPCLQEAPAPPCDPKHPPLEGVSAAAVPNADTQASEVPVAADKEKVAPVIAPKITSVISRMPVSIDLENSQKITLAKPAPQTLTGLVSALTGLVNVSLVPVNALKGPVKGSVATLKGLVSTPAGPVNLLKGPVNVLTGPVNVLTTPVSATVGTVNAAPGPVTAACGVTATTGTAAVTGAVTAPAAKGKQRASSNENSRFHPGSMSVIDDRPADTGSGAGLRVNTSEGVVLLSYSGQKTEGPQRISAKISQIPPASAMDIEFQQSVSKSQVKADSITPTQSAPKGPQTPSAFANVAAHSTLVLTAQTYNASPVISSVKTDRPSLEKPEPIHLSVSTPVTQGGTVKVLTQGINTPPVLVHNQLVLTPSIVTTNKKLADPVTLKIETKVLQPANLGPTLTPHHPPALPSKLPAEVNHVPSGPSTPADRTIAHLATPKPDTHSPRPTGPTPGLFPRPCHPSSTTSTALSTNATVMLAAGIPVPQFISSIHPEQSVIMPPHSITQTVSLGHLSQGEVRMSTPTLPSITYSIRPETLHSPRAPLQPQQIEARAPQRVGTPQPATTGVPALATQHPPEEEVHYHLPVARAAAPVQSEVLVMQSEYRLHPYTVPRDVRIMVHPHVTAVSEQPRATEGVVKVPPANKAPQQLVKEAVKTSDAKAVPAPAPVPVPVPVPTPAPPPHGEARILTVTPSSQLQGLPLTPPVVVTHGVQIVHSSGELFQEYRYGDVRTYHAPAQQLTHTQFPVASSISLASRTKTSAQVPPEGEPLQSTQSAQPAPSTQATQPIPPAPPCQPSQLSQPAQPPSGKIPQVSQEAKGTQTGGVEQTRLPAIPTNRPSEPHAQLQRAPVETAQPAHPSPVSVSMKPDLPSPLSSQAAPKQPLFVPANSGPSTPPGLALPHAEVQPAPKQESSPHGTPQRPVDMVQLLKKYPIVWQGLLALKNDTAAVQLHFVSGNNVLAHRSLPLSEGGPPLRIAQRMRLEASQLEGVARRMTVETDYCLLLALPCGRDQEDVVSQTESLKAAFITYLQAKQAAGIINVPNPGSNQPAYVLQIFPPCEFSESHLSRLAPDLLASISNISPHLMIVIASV

| Substance | binding signal (fold over IgG) ([1]; female ES cells) | binding signal (SILAC ratio Xist/U1) [2] | binding signal (SILAC ratio Xist/U1) [3] | binding signal (% reduced binding) [4] | binding signal (fold over input) [5] | binding signal (fold over input) [6] | binding signal (fold over input) [7] | binding signal (fold over input) [8] | binding signal (fold over input) [9] | binding signal (fold over input) [10] | binding signal (fold over IgG) ([1]; RA-treated female ES cells, CLIP site 317-1056) |
| --- | --- | --- | --- | --- | --- | --- | --- | --- | --- | --- | --- |
| 45S pre-rRNA | < 1 |  |  |  |  |  |  |  |  |  |  |
| Xist lncRNA |  | > 3 | > 3 | 97 | > 4 | > 4 | > 4 | > 4 | > 4 | > 4 | > 45 |
| Neat1 lncRNA | < 1 |  |  |  |  |  |  |  |  |  |  |
